The source of these data is US20220298260A1 (MYTHIC THERAPEUTICS, published 2022).

One may read the IC50 as the concentration that gives 50% inhibition.

B1: mirvetuximab (antibody, V domains shown)
VH: QVQLVQSGAEVVKPGASVKISCKASGYTFTGYFMNWVKQSPGQSLEWIGRIHPYDGDTFYNQKFQGKATLTVDKSSNTAHMELLSLTSEDFAVYYCTRYDGSRAMDYWGQGTTVTVSS
VL: DIVLTQSPLSLAVSLGQPAIISCKASQSVSFAGTSLMHWYHQKPGQQPRLLIYRASNLEAGVPDRFSGSGSKTDFTLTISPVEAEDAATYYCQQSREYPYTFGGGTKLEIK
notes: IgG expressed in Expi293; the entries are labelled heavy/light chain of the IgG but hold only the variable domains; also called MYT0596
B2: MYT0603 (antibody, V domains shown)
VH: B1 VH with F29H
VL: B1 VL
notes: IgG
B3: MYT1154 (antibody, V domains shown)
VH: B1 VH with A24H, Y27H, F59H
VL: B1 VL
notes: IgG
B4: MYT2194 (antibody, V domains shown)
VH: EVQLVESGGGVVQPGRSLRLSCSASGFTFSGYGLHWVRQAPGKGLEWVAMISSGGSYTYYADSVKGRFAISRDNAKNTLFLQMDSLRPEDTGVYFCARHGDDPAWFAYWGQGTPVTVSS
VL: DIQLTQSPSSLSASVGDRVTITCSVSSSISSNNLHWYQQKPGKAPKPWIYGTSNLASGVPSRFSGSGSGTDYTFTISSLQPEDIATYYCQQWSSYPYMYTFGQGTKVEIK
notes: IgG
B5: MYT2221 (antibody, V domains shown)
VH: B4 VH with H35S, F106H
VL: B4 VL
notes: IgG
B6: MYT2215 (antibody, V domains shown)
VH: B4 VH with H35S, G100H
VL: B4 VL
notes: IgG
B7: MYT2195 (antibody, V domains shown)
VH: B4 VH with H35S, M50H
VL: B4 VL
notes: IgG
B8: MYT2196 (antibody, V domains shown)
VH: B4 VH with H35S, I51H
VL: B4 VL
notes: IgG
B9: MYT2217 (antibody, V domains shown)
VH: B4 VH with H35S, D102H
VL: B4 VL
notes: IgG
B10: MYT2219 (antibody, V domains shown)
VH: B4 VH with H35S, A104H
VL: B4 VL
notes: IgG
B11: MYT2252 (antibody, V domains shown)
VH: EVQLVESGGGLVQPGGSLRLSCAASGFNIRTQSIHWVRQAPGKGLEWIGDIFPIDGITDYADSVKGRFTISADTSKNTAYLQMNSLRAEDTAVYYCHRGSWSWPSGMDYYLDYWGQGTLVTVSS
VL: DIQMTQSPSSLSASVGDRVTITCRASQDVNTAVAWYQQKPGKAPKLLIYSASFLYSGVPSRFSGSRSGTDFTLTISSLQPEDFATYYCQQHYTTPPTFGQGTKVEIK
notes: IgG
B12: MYT2261 (antibody, V domains shown)
VH: B11 VH with H97A, G106H
VL: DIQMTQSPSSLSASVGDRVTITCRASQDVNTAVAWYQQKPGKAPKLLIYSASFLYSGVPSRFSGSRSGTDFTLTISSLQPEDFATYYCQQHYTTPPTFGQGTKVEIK
notes: IgG
B13: MYT2259 (antibody, V domains shown)
VH: B11 VH with H97A, P104H
VL: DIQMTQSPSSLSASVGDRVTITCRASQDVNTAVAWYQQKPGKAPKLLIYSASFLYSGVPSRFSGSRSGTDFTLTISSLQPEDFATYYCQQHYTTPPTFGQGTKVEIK
notes: IgG
B14: MYT2254 (antibody, V domains shown)
VH: B11 VH with H97A, G99H
VL: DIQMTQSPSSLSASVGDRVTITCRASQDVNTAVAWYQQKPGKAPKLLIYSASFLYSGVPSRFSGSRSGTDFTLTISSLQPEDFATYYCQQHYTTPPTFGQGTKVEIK
notes: IgG
B15: MYT4503 (antibody, V domains shown)
VH: B11 VH with H97A
VL: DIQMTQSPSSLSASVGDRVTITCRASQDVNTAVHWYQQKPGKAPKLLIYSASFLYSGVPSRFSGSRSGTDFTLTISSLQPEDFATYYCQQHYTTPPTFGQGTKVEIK
notes: IgG
B16: MYT4501 (antibody, V domains shown)
VH: B11 VH with H97A
VL: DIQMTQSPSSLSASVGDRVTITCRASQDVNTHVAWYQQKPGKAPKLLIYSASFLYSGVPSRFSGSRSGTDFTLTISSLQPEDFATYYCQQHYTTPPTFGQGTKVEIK
notes: IgG

Where a chain is given by its changes, count along the chain named.

T1 sequence (P15328 25-233): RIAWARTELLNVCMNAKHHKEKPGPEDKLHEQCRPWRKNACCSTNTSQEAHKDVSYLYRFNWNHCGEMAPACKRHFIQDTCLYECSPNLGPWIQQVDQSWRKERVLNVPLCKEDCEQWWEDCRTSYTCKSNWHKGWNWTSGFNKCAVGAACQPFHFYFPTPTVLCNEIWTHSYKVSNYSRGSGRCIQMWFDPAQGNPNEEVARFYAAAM

The first experiment concerns the target T1, FOLR1 on NIH:OVCAR-3 cells (human, UniProt P15328 25-233).
T1 construct: Endogenous FOLR1 of NIH:OVCAR-3 (FOLR1+) cells; also called cell surface FOLR1
Put plainly: flow cytometry on NIH:OVCAR-3 cells, Alexa Fluor 488 anti-human IgG. The protocol:
Binding affinity of selected anti-FOLR1 pH engineered antibody variants from Examples 9 and 11 were measured on NIH:OVCAR-3 cells. 100,000 cells per well were resuspended in […] FC buffer in a 96 well deep well plate. Mirvetuximab and pH engineered antibody variants were serially diluted at a 1:3 dilution. 100 µL of diluted antibody was added to each well with final concentration ranging from ˜100 nM to 0.024 pM and incubated for 2 hours at 4° C. Post incubation, the cells were spun at 2000 rpm for 2 min and supernatant was discarded. Cells were washed twice with 500 μL of ice-cold FC buffer and resuspended with 100 μL of FC buffer. The cells were then transferred from the deep well plate to 96 well round bottom plate, spun at 2000 rpm for 2 min and incubated with 100 μL of 10 μg/mL Alexa Fluor 488 conjugated goat anti-human IgG secondary antibody (ThermoFisher Scientific, A11013) for 30 min. Post incubation, cells were washed with FC buffer and resuspended in 100 μL, of FC buffer to read on a BD Accuri C6 flow cytometer. […] MYT0603 and MYT1154 show high affinity binding to cell surface FOLR1 on NIH:OVCAR-3 cells in the pM-nM range confirming that variants created through pH engineering can retain functionally appropriate affinities as compared to their corresponding starting ABPCs (e.g., mirvetuximab).
B1 returned a half-inhibitory concentration (IC50) of 0.25 nM. The molecule B2 displayed a half-inhibitory concentration (IC50) of 0.65 nM. In the case of B3, the IC50 is 0.396 nM.

The target of another experiment is T2, FOLR1 (R&D Systems, Cat #5646-FR) (human, UniProt P15328 25-233).
T2 construct: Bought soluble protein; also called Folate Receptor 1
T2 sequence (P15328 25-233 limits assumed): as the sequence (P15328 25-233) above
Nature of the experiment: BLI, IgG on anti-human Fc sensor. (In BLI a coated tip is dipped into the sample, and binding shifts an interference pattern.)
Turning to B4, the binding result is “no binding (tested: 50 nM)”. With B5, the binding result is recorded as “no binding (tested: 50 nM)”.

Turning to B6, the binding result was “no binding (tested: 50 nM)”. The same measure, in the same setting: in the case of B7 it was “no binding (tested: 50 nM)”; in that of B8, “no binding (tested: 50 nM)”. As for B9, the binding result is recorded as “no binding (tested: 50 nM)”.

As to B10, the binding result was “no binding (tested: 50 nM)”.

For B11, the binding result is “no binding (tested: 50 nM)”. B12: the binding result is “no binding (tested: 50 nM)”. Consider B13, for which the binding result is “no binding (tested: 50 nM)”. On to B14, for which the binding result is “no binding (tested: 50 nM)”.

On to B15, for which the binding result is on record as “no binding (tested: 50 nM)”.

In the case of B16, the binding result was “no binding (tested: 50 nM)”.
